From patent US20150344570A1 (published 2015)
Changes are numbered by the printed parent chain. Names may count otherwise. Where two headings read alike, the source gives them in different places.

B1: H240-Kn061/H240-Hl071/L73-k0 variant with V240F introduced into H chain H240-Hl071 (antibody, human IgG1, kappa)
heavy 1: QDQLVQSGAEVKKPGASVKVSCKASGFNIKDTYIQWVRQAPGQGLEWMGRIDPLRKQTKYREKFEGRVTITADTSTNTAYMELSSLRSEDTAVYYCVRSGREFDYWGQGTLVTVSSASTKGPSVFPLAPSSKSTSGGTAALGCLVKDYFPEPVTVSWNSGALTSGVHTFPAVLQSSGLYSLSSVVTVPSSSLGTQTYICNVNHKPSNTKVDKKVEPKSCDKTHTCPPCPAPEYYWGPSVFLFPPKPKDTLMISRTPEVTCVVVDVSDEDPEVKFNWYVDGVEVHNAKTKPREEQYNATYRVVSVLTVLHQDWLNGKEYKCKVSNKALPAPIEKTISKAKGQPREPQVCTLPPSRDELTKNQVSLWCLVKGFYPSDIAVEWESNGQPENNYKTTPPVLDSDGSFFLYSKLTVDKSRWQQGNVFSCSVMHEALHNHYTQKSLSLSP
heavy 2: QDQLVQSGAEVKKPGASVKVSCKASGFNIKDTYIQWVRQAPGQGLEWMGRIDPLRKQTKYREKFEGRVTITADTSTNTAYMELSSLRSEDTAVYYCVRSGREFDYWGQGTLVTVSSASTKGPSVFPLAPSSKSTSGGTAALGCLVKDYFPEPVTVSWNSGALTSGVHTFPAVLQSSGLYSLSSVVTVPSSSLGTQTYICNVNHKPSNTKVDKKVEPKSCDKTHTCPPCPAPELLGGPSFFLFPPKPKDTLMISRTPEVTCVVVDVSHEDPEVKFNWYVDGVEVHNAKTKPREEQYNSTYRVVSVLTVLHQDWLNGKEYKCKVSNDALPMPIEETISKAKGQPREPQVYTLPPSRCELTKNQVSLSCAVKGFYPSDIAVEWESNGQPENNYKTTPPVLDSDGSFFLVSKLTVDKSRWQQGNVFSCSVMHEALHNHYTQKSLSLSP
light: DIQMTQSPSSLSASVGDRVTITCRASQDIHKYIAWYQQKPGQAPRLLIQYTSTLQPGVPSRFSGSGSGTDYTFTISSLQPEDIATYYCLQYEQLRTFGGGTKVEIKRTVAAPSVFIFPPSDEQLKSGTASVVCLLNNFYPREAKVQWKVDNALQSGNSQESVTEQDSKDSTYSLSSTLTLSKADYEKHKVYACEVTHQGLSSPVTKSFNRGEC
notes: Point variant of the heterodimerized anti-epiregulin IgG1 template; also called H240-Hl071 V240F
B2: H240-Kn120/H240-Hl068/L73-k0 (antibody, human IgG1, kappa)
heavy 1: B1 heavy 1 with S238M, A326D
heavy 2: B1 heavy 2 with F239V, D269E, M329K
light: B1 light
notes: Heterodimerized (knobs-into-holes) anti-epiregulin IgG1 antibody; also called H240-Kn120/H240-HI068/L73-k0
B3: H240-Kn120/H240-Hl086/L73-k0 (antibody, human IgG1, kappa)
heavy 1: B1 heavy 1 with S238M, A326D
heavy 2: B1 heavy 2 with G235I, F239V, D269E, M329K
light: B1 light
notes: also called H240-Kn120/H240-HI086/L73-k0
B4: H240-Kn120/H240-Hl073/L73-k0 (antibody, human IgG1, kappa)
heavy 1: B1 heavy 1 with S238M, A326D
heavy 2: B1 heavy 2 with G235S, F239V, D269E, M329K
light: B1 light
notes: also called H240-Kn120/H240-HI073/L73-k0
B5: H240-Kn120/H240-Hl089/L73-k0 (antibody, human IgG1, kappa)
heavy 1: B1 heavy 1 with S238M, A326D
heavy 2: B1 heavy 2 with G235T, F239V, D269E, M329K
light: B1 light
notes: also called H240-Kn120/H240-HI089/L73-k0
B6: H240-Kn061/H240-Hl071/L73-k0 variant with Y234E introduced into H chain H240-Kn061 (antibody, human IgG1, kappa)
heavy 1: B1 heavy 1 with Y233E
heavy 2: B1 heavy 2 with F239V
light: B1 light
notes: Point variant of the heterodimerized anti-epiregulin IgG1 template; also called H240-Kn061 Y234E
B7: H240-Kn061/H240-Hl071/L73-k0 variant with Y235N introduced into H chain H240-Kn061 (antibody, human IgG1, kappa)
heavy 1: B1 heavy 1 with Y234N
heavy 2: B1 heavy 2 with F239V
light: B1 light
notes: Point variant of the heterodimerized anti-epiregulin IgG1 template; also called H240-Kn061 Y235N
B8: H240-Kn120/H240-Hl085/L73-k0 (antibody, human IgG1, kappa)
heavy 1: B1 heavy 1 with S238M, A326D
heavy 2: B1 heavy 2 with G235V, F239V, D269E, M329K
light: B1 light
notes: also called H240-Kn120/H240-HI085/L73-k0

Tests used:
[1] = target: T1, FcγRIIIa F extracellular domain with C-terminal His tag (human, UniProt P08637 17-208); experiment: SPR (Biacore); KD of H240-Kn061/H240-Hl071/L73-k0 divided by KD of the variant
T1 construct: extracellular domain; Soluble receptor, F158 allotype; also called FcgRIIIa F; FcgRIIIaF; not shown: His tag at the C terminus
T1 sequence (P08637 17-208): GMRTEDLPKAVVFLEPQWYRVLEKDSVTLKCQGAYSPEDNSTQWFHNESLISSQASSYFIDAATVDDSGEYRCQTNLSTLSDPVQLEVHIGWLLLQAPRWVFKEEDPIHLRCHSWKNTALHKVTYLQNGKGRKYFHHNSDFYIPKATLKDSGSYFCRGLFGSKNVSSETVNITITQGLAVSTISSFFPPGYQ

[2] = target: T2, FcγRIIa R extracellular domain with C-terminal His tag (human, UniProt P12318 34-217); experiment: as above
T2 construct: extracellular domain; Soluble receptor, R131 allotype; also called FcgRIIa R; FcgRIIaR; not shown: His tag at the C terminus
T2 sequence (looked up): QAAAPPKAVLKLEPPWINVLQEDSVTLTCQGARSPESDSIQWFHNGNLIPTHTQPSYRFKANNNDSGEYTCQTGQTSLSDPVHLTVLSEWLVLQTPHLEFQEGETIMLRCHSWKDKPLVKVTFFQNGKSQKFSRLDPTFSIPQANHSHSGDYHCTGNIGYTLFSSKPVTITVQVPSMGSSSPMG

[3] = target: T3, FcγRIIb extracellular domain with C-terminal His tag (human, UniProt P31994 43-217); experiment: as above
T3 construct: extracellular domain; also called FcgRIIb; CD32B; not shown: His tag at the C terminus
T3 sequence (looked up): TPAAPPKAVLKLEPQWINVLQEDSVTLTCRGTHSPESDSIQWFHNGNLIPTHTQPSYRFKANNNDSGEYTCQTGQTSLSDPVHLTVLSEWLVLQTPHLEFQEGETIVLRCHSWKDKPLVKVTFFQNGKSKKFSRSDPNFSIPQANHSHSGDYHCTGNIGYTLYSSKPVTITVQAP

[4] = target: T4, FcγRIIIa V extracellular domain with C-terminal His tag (human, UniProt P08637 17-208); experiment: as above
T4 construct: extracellular domain; Soluble receptor, V158 allotype; also called FcgRIIIa V; FcgRIIIaV; not shown: His tag at the C terminus
T4 sequence (P08637 17-208 F176V): as the sequence (P08637 17-208) above, with F160V counted along it

[5] = target: T5, FcγRIIa H extracellular domain with C-terminal His tag (human, UniProt P12318 34-217); experiment: as above
T5 construct: extracellular domain; Soluble receptor, H131 allotype; also called FcgRIIa H; FcgRIIaH; not shown: His tag at the C terminus
T5 sequence (looked up): T2 sequence (looked up) with R134H

[6] = target: T6, FcgRIIIa F type extracellular domain, C-terminal His tag (human, UniProt P08637 17-208); experiment: SPR (Biacore); KD of H240-Kn120/H240-Hl068/L73-k0 divided by KD of the variant
T6 construct: extracellular domain; Soluble analyte in Biacore; also called FcγRIIIa F; not shown: His tag at the C terminus
T6 sequence (P08637 17-208): as the sequence (P08637 17-208) above
Description: (§1) H240-Kn179/H240-H1089/L73-k0, H240-Kn180/H240-Hl089/L73-k0, H240-Kn192/H240-Hl204/L73-k0, and H240-Kn193/H240-Hl204/L73-k0 were prepared by combining each of H240-Kn192 and H240-Kn193 as an H chain, L73-k0 as the L chain, and H240-Hl089 and H240-Hl204 as the other H chain according to the method described in Reference Example 1. The variants described above were assessed for their binding to FcγR according to the method described in Reference Example 8.
(§2) Analysis of interaction between objective antibody and the FcγR was carried out using Biacore T100 (GE Healthcare), Biacore T200, Biacore A100, and Biacore 4000. HBS-EP+ (GE Healthcare) was used as the running buffer, and the measurement temperature was set to 25° C. Chips produced by immobilizing the antigen peptide by the amine coupling method to a Series S sensor Chip CM5 (GE Healthcare), chips produced by allowing preliminarily biotinylated antigen peptides to interact with and immobilize onto a Series S Sensor Chip SA (certified) (GE Healthcare), chips produced by immobilizing Protein L (ACTIGEN, BioVision) to Series S Sencor Chip CM5 (GE Healthcare), or chips produced by immobilizing Protein A/G (Thermo Scientific) to Series S Sencor Chip CM5 (GE Healthcare) were used. Antibodies of interest were captured onto these chips, and allowed to interact to each FcγR diluted with running buffer. To regenerate and repeatedly use the chip, the antibodies captured onto the chip were washed off by reacting 10 mM glycine-HCl, pH 1.5.

[7] = target: T7, FcgRIIa R type extracellular domain, C-terminal His tag (human, UniProt P12318 34-217); experiment: as above
T7 construct: extracellular domain; Soluble analyte in Biacore; also called FcγRIIa R; FcγRIIa(R); not shown: His tag at the C terminus
T7 sequence (looked up): T2 sequence (looked up)
Description: as §1, §2

[8] = target: T8, FcgRIIIa V type extracellular domain, C-terminal His tag (human, UniProt P08637 17-208); experiment: as above
T8 construct: extracellular domain; Soluble analyte in Biacore; also called FcγRIIIa V; not shown: His tag at the C terminus
T8 sequence (P08637 17-208 F176V): as the sequence (P08637 17-208) above, with F160V counted along it
Description: as §1, §2

[9] = target: T9, FcgRIIa H type extracellular domain, C-terminal His tag (human, UniProt P12318 34-217); experiment: as above
T9 construct: extracellular domain; Soluble analyte in Biacore; also called FcγRIIa H; FcγRIIa(H); not shown: His tag at the C terminus
T9 sequence (looked up): T2 sequence (looked up) with R134H
Description: as §1, §2

[10] = target: T10, FcgRIIb extracellular domain, C-terminal His tag (human, UniProt P31994 43-217); experiment: as above
T10 construct: extracellular domain; Soluble analyte in Biacore; also called FcγRIIb; not shown: His tag at the C terminus
T10 sequence (looked up): T3 sequence (looked up)
Description: as §1, §2

[11] = target: T6, FcgRIIIa F type extracellular domain, …; experiment: as above; remark: listed apart in the source
Description: as §2

[12] = target: T7, FcgRIIa R type extracellular domain, …; experiment: as above; remark: listed apart in the source
Description: as §2

[13] = target: T8, FcgRIIIa V type extracellular domain, …; experiment: as above; remark: listed apart in the source
Description: as §2

[14] = target: T9, FcgRIIa H type extracellular domain, …; experiment: as above; remark: listed apart in the source
Description: as §2

[15] = target: T10, FcgRIIb extracellular domain, …; experiment: as above; remark: listed apart in the source
Description: as §2

Row | Binder | relative KD [1] | relative KD [2] | relative KD [3] | relative KD [4] | relative KD [5] | relative KD [6] | relative KD [7] | relative KD [8] | relative KD [9] | relative KD [10] | relative KD [11] | relative KD [12] | relative KD [13] | relative KD [14] | relative KD [15]
1 | B1 | 1.4 | 1.1 | 0.9 | 1 | 0.9 | – | – | – | – | – | – | – | – | – | –
2 | B2 | – | – | – | – | – | 1 | 1 | 1 | 1 | 1 | 1 | 1 | 1 | 1 | 1
3 | B3 | – | – | – | – | – | – | – | – | – | – | 0.1 | 0.9 | 0 | 0.8 | 0.3
4 | B4 | – | – | – | – | – | – | – | – | – | – | 0.3 | 1.3 | 0.2 | 2 | 0.7
5 | B5 | – | – | – | – | – | 0.2 | 1.4 | 0.1 | 1 | 0.8 | 0.2 | 1.4 | 0.1 | 1 | 0.8
6 | B6 | 1.9 | 1.4 | 0.5 | 1.6 | 0.7 | – | – | – | – | – | – | – | – | – | –
7 | B7 | 1.3 | 1 | 0.7 | 2 | 0.7 | – | – | – | – | – | – | – | – | – | –
8 | B8 | – | – | – | – | – | – | – | – | – | – | 0.1 | 1.1 | 0.1 | 0.9 | 0.4
